Key:
[1] = target: recombinant Flk-1 (UniProt P35918); experiment: ELISA on coated recombinant Flk-1, anti-rat IgG1 HRP; antibody at 333 ng/ml
[2] = target: recombinant Flk-1 (UniProt P35918); experiment: competition ELISA: antibody mixed with Flk-1, added to coated human VEGF, anti-Flk-1-HRP; antibody at 333 ng/ml
[3] = target: recombinant Flk-1 (UniProt P35918); experiment: competition ELISA: antibody mixed with Flk-1, added to coated human VEGF, anti-Flk-1-HRP; antibody at 12 ng/ml
[4] = target: recombinant Flk-1 (UniProt P35918); experiment: competition ELISA: antibody mixed with Flk-1, added to coated human VEGF, anti-Flk-1-HRP; antibody at 0 ng/ml (no inhibitor)
[5] = target: recombinant Flk-1 (UniProt P35918); experiment: ELISA on coated recombinant Flk-1, anti-rat IgG1 HRP; antibody at 37 ng/ml
[6] = target: recombinant Flk-1 (UniProt P35918); experiment: ELISA on coated recombinant Flk-1, anti-rat IgG1 HRP; antibody at 4 ng/ml
[7] = target: recombinant Flk-1 (UniProt P35918); experiment: competition ELISA: antibody mixed with Flk-1, added to coated human VEGF, anti-Flk-1-HRP; antibody at 4 ng/ml
[8] = target: recombinant Flk-1 (UniProt P35918); experiment: ELISA on coated recombinant Flk-1, anti-rat IgG1 HRP; antibody at 111 ng/ml
[9] = target: recombinant Flk-1 (UniProt P35918); experiment: ELISA on coated recombinant Flk-1, anti-rat IgG1 HRP; antibody at 12 ng/ml
[10] = target: recombinant Flk-1 (UniProt P35918); experiment: ELISA on coated recombinant Flk-1, anti-rat IgG1 HRP; antibody at 1000 ng/ml
[11] = target: recombinant Flk-1 (UniProt P35918); experiment: ELISA on coated recombinant Flk-1, anti-rat IgG1 HRP; antibody at 0 ng/ml (background)
[12] = target: recombinant Flk-1 (UniProt P35918); experiment: competition ELISA: antibody mixed with Flk-1, added to coated human VEGF, anti-Flk-1-HRP; antibody at 37 ng/ml
[13] = target: recombinant Flk-1 (UniProt P35918); experiment: competition ELISA: antibody mixed with Flk-1, added to coated human VEGF, anti-Flk-1-HRP; antibody at 111 ng/ml
[14] = target: recombinant Flk-1 (UniProt P35918); experiment: competition ELISA: antibody mixed with Flk-1, added to coated human VEGF, anti-Flk-1-HRP; antibody at 1000 ng/ml

Chain of UniProt P35918 (P35918 20-762 limits assumed): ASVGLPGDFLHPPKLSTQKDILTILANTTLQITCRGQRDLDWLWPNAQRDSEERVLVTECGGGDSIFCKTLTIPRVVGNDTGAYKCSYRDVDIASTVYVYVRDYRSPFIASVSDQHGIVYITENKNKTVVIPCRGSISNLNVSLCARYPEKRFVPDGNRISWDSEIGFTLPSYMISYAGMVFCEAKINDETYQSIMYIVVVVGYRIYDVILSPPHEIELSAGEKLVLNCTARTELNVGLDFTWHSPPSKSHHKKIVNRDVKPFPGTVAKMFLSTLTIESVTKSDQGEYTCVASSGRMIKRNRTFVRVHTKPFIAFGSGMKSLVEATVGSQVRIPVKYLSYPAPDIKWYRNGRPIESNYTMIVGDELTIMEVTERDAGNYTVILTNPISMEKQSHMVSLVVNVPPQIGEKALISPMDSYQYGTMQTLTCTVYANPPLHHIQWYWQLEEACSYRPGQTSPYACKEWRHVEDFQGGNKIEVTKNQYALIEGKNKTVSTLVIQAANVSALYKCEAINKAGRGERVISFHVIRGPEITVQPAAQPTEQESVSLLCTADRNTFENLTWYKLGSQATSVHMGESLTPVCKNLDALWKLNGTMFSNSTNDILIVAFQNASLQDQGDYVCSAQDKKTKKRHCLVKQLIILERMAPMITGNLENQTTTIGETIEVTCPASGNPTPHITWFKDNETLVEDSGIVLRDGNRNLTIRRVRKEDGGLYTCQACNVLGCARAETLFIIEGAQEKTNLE

ELISA signal (name and unit not given) [1] | signal of Flk-1 bound to coated VEGF (name and unit not given) [2] | signal of Flk-1 bound to coated VEGF (name and unit not given) [3] | signal of Flk-1 bound to coated VEGF (name and unit not given) [4] | ELISA signal (name and unit not given) [5] | ELISA signal (name and unit not given) [6] | signal of Flk-1 bound to coated VEGF (name and unit not given) [7] | ELISA signal (name and unit not given) [8] | ELISA signal (name and unit not given) [9] | ELISA signal (name and unit not given) [10] | ELISA signal (name and unit not given) [11] | signal of Flk-1 bound to coated VEGF (name and unit not given) [12] | signal of Flk-1 bound to coated VEGF (name and unit not given) [13] | signal of Flk-1 bound to coated VEGF (name and unit not given) [14] | Molecule
0.894 | 0.357 | 0.931 | 1.1 | 0.585 | 0.312 | 0.992 | 0.724 | 0.403 | 1.12 | 0.117 | 0.834 | 0.635 | 0.193 | DC101 antibody produced by a hybridoma
0.993 | 0.237 | 0.945 | 1.07 | 0.486 | 0.274 | 1.04 | 0.616 | 0.412 | 1.14 | 0.129 | 0.826 | 0.43 | 0.184 | DC101 antibody expressed from CHO-S cells infected with Lenti-DC101-furin/2A14 (clone 7x-24) (antibody, from another filing, V domains shown) VH: EVQLVETGGGLVQPGNSLKLSCATSGFIFSTTWMNWIRQTPGKRLEWLAQIEDKSNNYFISYSESVKGRFTISRDDSKSSVYLQMNNLKEEDTAIYYCSWKYRSNYYFDYWGQGVMVTVSS VL: DIVLTQSPALAVSLEQRATISCKTSQNVDYYGISYLHWYQQKPGQQPKLLIYEGSNLASGIPARFSGSGSGTDFTLTIDPVEADDIVTYYCQQSKDYPYTFGAGTKLELKR

Source: patent publication US20070059820A1
